Laboratory results from PMC12860359 (2025).
Changes are numbered by the printed parent chain. Values belong to the binder of their own block, whether it stands above or below them.

Columns and labels:
MBP-HA Rap1B WT [1] = target: T1, MBP-HA Rap1B WT (human, UniProt P61224-1 1-184); assay: BLI; GDP-bound Rap1B
T1 chain: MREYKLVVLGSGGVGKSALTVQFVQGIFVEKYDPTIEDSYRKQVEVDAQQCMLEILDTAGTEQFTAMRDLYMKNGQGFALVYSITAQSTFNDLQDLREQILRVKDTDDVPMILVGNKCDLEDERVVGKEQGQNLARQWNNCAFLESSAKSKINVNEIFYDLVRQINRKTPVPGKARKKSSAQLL

MBP-HA Rap1B WT [2] = target: T1, MBP-HA Rap1B WT; assay: BLI; GTPγS-bound Rap1B
MBP-HA Rap1B WT [3] = target: T1, MBP-HA Rap1B WT; assay: BLI; GTPγS-bound Rap1B

- Kd (MBP-HA Rap1B WT [1]): 722 nM
- koff (MBP-HA Rap1B WT [2]): 0.000574 s⁻¹
B1: VHH-hFcS A47 (Fc fusion)
chain: EVQLQASGGGFVQPGGSLRLSCAASGFTSKNTIMGWFRQAPGKEREFVSAISSAPGYWEYYADSVKGRFTISRDNSKNTVYLQMNSLRAEDTATYYCAAPINQAPGRPIRSDQYWGQGTQVTVSS

- Kd (MBP-HA Rap1B WT [1]): 295 nM
- koff (MBP-HA Rap1B WT [2]): 0.00104 s⁻¹
- Kd (MBP-HA Rap1B WT [3]): 25.8 nM
B2: VHH-hFcS B14 (Fc fusion)
chain: B1 chain with F37Y, F47L

- Kd (MBP-HA Rap1B WT [1]): 20.2 nM
B3: VHH-hFcS B89 (Fc fusion)
chain: B1 chain with S111W
